According to the supplement of paper PMC11246515:
± gives the standard deviation of the averaged measurements.

Assay: total protein half-life in vivo (active degradation + dilution); higher = more stable protein
[1] = E. coli NCM3722 delta-clpP delta-lon delta-hslV, growth: N-lim chemostat, doubling time 6 h
[2] = E. coli NCM3722 delta-clpP, growth: N-lim chemostat, doubling time 6 h
[3] = E. coli NCM3722 delta-hslV, growth: N-lim chemostat, doubling time 6 h
[4] = E. coli NCM3722 delta-lon, growth: N-lim chemostat, doubling time 6 h
[5] = E. coli NCM3722 delta-smpB, growth: N-lim chemostat, doubling time 6 h
[6] = wild type E. coli NCM3722, growth: C-lim chemostat, doubling time 3 h
[7] = wild type E. coli NCM3722, growth: C-lim chemostat, doubling time 6 h
[8] = wild type E. coli NCM3722, growth: C-lim chemostat, doubling time 12 h
[9] = wild type E. coli NCM3722, growth: N-lim chemostat, doubling time 6 h
[10] = wild type E. coli NCM3722, growth: N-lim chemostat, doubling time 12 h
[11] = wild type E. coli NCM3722, growth: P-lim chemostat, doubling time 6 h
[12] = wild type E. coli NCM3722, growth: P-lim chemostat, doubling time 12 h

Sequence | total protein half-life in vivo [1] [h] | total protein half-life in vivo [2] [h] | total protein half-life in vivo [3] [h] | total protein half-life in vivo [4] [h] | total protein half-life in vivo [5] [h] | total protein half-life in vivo [6] [h] | total protein half-life in vivo [7] [h] | total protein half-life in vivo [8] [h] | total protein half-life in vivo [9] [h] | total protein half-life in vivo [10] [h] | total protein half-life in vivo [11] [h] | total protein half-life in vivo [12] [h]
MFENITAAPADPILGLADLFRADERPGKINLGIGVYKDETGKTPVLTSVKKAEQYLLENETTKNYLGIDGIPEFGRCTQELLFGKGSALINDKRARTAQTPGGTGALRVAADFLAKNTSVKRVWVSNPSWPNHKSVFNSAGLEVREYAYYDAENHTLDFDALINSLNEAQAGDVVLFHGCCHNPTGIDPTLEQWQTLAQLSVEKGWLPLFDFAYQGFARGLEEDAEGLRAFAAMHKELIVASSYSKNFGLYNERVGACTLVAADSETVDRAFSQMKAAIRANYSNPPAHGASVVATILSNDALRAIWEQELTDMRQRIQRMRQLFVNTLQEKGANRDFSFIIKQNGMFSFSGLTKEQVLRLREEFGVYAVASGRVNVAGMTPDNMAPLCEAIVAVL | 4.59 ± 0.58 | 4.02 ± 0.34 | 3.88 ± 0.059 | 4.44 ± 0.22 | 3.789 ± 0.034 | 3.16 ± 0.23 | 5.555 ± 0.041 | 10.29 ± 0.024 | 3.86 ± 0.14 | 5.97 ± 0.14 | 5.69 ± 0.19 | 11.84 ± 0.03
MFEPMELTNDAVIKVIGVGGGGGNAVEHMVRERIEGVEFFAVNTDAQALRKTAVGQTIQIGSGITKGLGAGANPEVGRNAADEDRDALRAALEGADMVFIAAGMGGGTGTGAAPVVAEVAKDLGILTVAVVTKPFNFEGKKRMAFAEQGITELSKHVDSLITIPNDKLLKVLGRGISLLDAFGAANDVLKGAVQGIAELITRPGLMNVDFADVRTVMSEMGYAMMGSGVASGEDRAEEAAEMAISSPLLEDIDLSGARGVLVNITAGFDLRLDEFETVGNTIRAFASDNATVVIGTSLDPDMNDELRVTVVATGIGMDKRPEITLVTNKQVQQPVMDRYQQHGMAPLTQEQKPVAKVVNDNAPQTAKEPDYLDIPAFLRKQAD [P0A9A6] | 5.406 ± 0.043 | 5.13 ± 0.67 | 1.86 ± 0.3 | 1.95 ± 0.19 | 1.95 ± 0.0047 | 1.25 ± 0.079 | 1.97 ± 0.13 | 2.7 ± 0.23 | 1.79 ± 0.093 | 2.79 ± 0.26 | 2.53 ± 0.23 | 4.37 ± 0.54
MFGKGGLGNLMKQAQQMQEKMQKMQEEIAQLEVTGESGAGLVKVTINGAHNCRRVEIDPSLLEDDKEMLEDLVAAAFNDAARRIEETQKEKMASVSSGMQLPPGFKMPF [P0A8B5] | 6.29 ± 0.61 | 4.38 ± 0.044 | 3.59 ± 0.49 | 4.57 ± 0.16 | 3.28 ± 0.64 | 2.68 ± 0.07 | 4.44 ± 0.19 | 7.56 ± 0.1 | 3.02 ± 0.071 | 5.05 ± 0.83 | 4.24 ± 0.68 | 9.46 ± 0.42
MFGYRSNVPKVRLTTDRLVVRLVHDRDAWRLADYYAENRHFLKPWEPVRDESHCYPSGWQARLGMINEFHKQGSAFYFGLFDPDEKEIIGVANFSNVVRGSFHACYLGYSIGQKWQGKGLMFEALTAAIRYMQRTQHIHRIMANYMPHNKRSGDLLARLGFEKEGYAKDYLLIDGQWRDHVLTALTTPDWTPGR [P0A948] | 4.56 ± 0.93 | 3.52 ± 0.15 | 3.89 ± 0.49 | 4.189 ± 0.017 | 4.098 ± 0.021 | 3.07 ± 0.059 | 5.02 ± 0.078 | 8.98 ± 0.43 | 3.57 ± 0.065 | 5.92 ± 0.15 | 5.38 ± 0.41 | 
MFIPSIYLHQQLHYCKTAILNWSRKMALSRQKFTFERLRRFTLPEGKKQTFLWDADVTTLACRATSGAKAFVFQSVYAGKTLRMTIGNINDWKIDDARAEARRLQTLIDTGIDPRIAKAVKIAEAESLQAESRKTKVTFSVAWEDYLQELRTGISAKTKRPYSTRYIADHINLSSRGGESKKRGQGPTSAGPLASLLNLPLSELTPDYIAAWLSTERQNRPTVTAHAYRLLRAFIKWSNYQKKYQGIIPGDLAQDYNVRKMVPVSASKADDCLQKEQLKSWFSAVRSLNNPIASAYLQVLLLTGARREEIASLRWSDVDFKWSSMRIKDKIEGERIIPLTPYVSELLNVLAQSPNSDVNKEGWVFRSNSKSGKIIEPRSAHNRALVLAELPHISLHGLRRSFGTLAEWVEVPTGIVAQIMGHKPSALAEKHYRRRPLDLLRKWHEKIETWILNEAGITIKNNVDMR | 4.69 ± 0.43 | 1.01 ± 0.058 | 1.22 ± 0.19 | 3.07 ± 0.74 | 0.692 ± 0.011 | 0.877 ± 0.072 | 1.51 ± 0.091 | 3.01 ± 0.11 | 1.19 ± 0.41 | 1.97 ± 0.42 | 0.516 | 2.03 ± 0.4
MFKKILFPLVALFMLAGCAKPPTTIEVSPTITLPQQDPSLMGVTVSINGADQRTDQALAKVTRDNQIVTLTASRDLRFLLQEVLEKQMTARGYMVGPNGPVNLQIIVSQLYADVSQGNVRYNIATKADIAIIATAQNGNKMTKNYRASYNVEGAFQASNKNIADAVNSVLTDTIADMSQDTSIHEFIKQNAR [P0ADA5] | 6.32 ± 1.6 |  |  | 6.15 ± 0.68 | 5.86 ± 0.59 | > 4 | 7.64 ± 0.29 | 12.6 ± 0.17 | 6.36 ± 0.12 | 13 ± 0.98 | 6.254 ± 0.035 | 14.94 ± 0.13
MFKSFFPKPGTFFLSAFVWALIAVIFWQAGGGDWVARITGASGQIPISAARFWSLDFLIFYAYYIVCVGLFALFWFIYSPHRWQYWSILGTALIIFVTWFLVEVGVAVNAWYAPFYDLIQTALSSPHKVTIEQFYREVGVFLGIALIAVVISVLNNFFVSHYVFRWRTAMNEYYMANWQQLRHIEGAAQRVQEDTMRFASTLENMGVSFINAIMTLIAFLPVLVTLSAHVPELPIIGHIPYGLVIAAIVWSLMGTGLLAVVGIKLPGLEFKNQRVEAAYRKELVYGEDDATRATPPTVRELFSAVRKNYFRLYFHYMYFNIARILYLQVDNVFGLFLLFPSIVAGTITLGLMTQITNVFGQVRGAFQYLINSWTTLVELMSIYKRLRSFEHELDGDKIQEVTHTLS [P0AFY6] | 5.51 ± 0.24 | 5.35 ± 0.061 | 5.4 ± 0.62 | 5.41 ± 0.43 | 5.52 ± 0.15 |  | 4.97 ± 1.2 | 11.3 ± 1.3 |  | 8.73 ± 0.38 | 5.77 ± 0.34 | 
